{"source": "paper PMC11488661", "about": "(Science immunology, 2024)", "binders": {"B1": {"name": "GT8-D36-8_CLK19 (antibody, V domains shown)", "VH": "QVQLVQSGAEVKMPGASVKVSCKASGYTFTGYYMHWVRQAPGQGLEWMGWINPNSGGTNYAQKFQGRVTMTRDTSISTAYMALNSLRSDDAAVYYCAIVLADYRWRFNYWGQGTLVTVSS", "VL": "not shown"}, "B2": {"name": "GT8-D36-6_CLK19 (antibody, V domains shown)", "VH": "QVQLVQSGAEVKKPGASVKVSCKASEYTFTGYYMHWVRQAPGQGLEWMGWINPNSGGTNYVQKFQDRVTMTRDTSINTAYMELSRLRSDDTAVYYCTPVLAYYRWRFDYWGQGTLVTVSS", "VL": "not shown"}, "B3": {"name": "GT8-D36-18_CLK21 (antibody, V domains shown)", "VH": "QVQLVQSGAEVKKPGASVKVSCKTSGYTFTDYYMHWVRQAPGQGLEWMGWINPNSGGTNYAQRFQGRVTMTRDTSISTAYMELSRLRSDDTAVYYCASALRDSQPWWFDPWGQGTLVTVSS", "VL": "DIQMTQSPSTLSASVGDRVTITCRASQSISSWLAWYQQKPGKAPKLLIYKASSLESGVPSRFSGSGSGTEFTLTISSLQPDDFATYYCQQYDTFGGGTKVEIK"}, "B4": {"name": "GT8-D36-22_CLK21 (antibody, V domains shown)", "VH": "not shown", "VL": "B3 VL with K99R"}, "B5": {"name": "GT8-D36-17_CLK09 (antibody, V domains shown)", "VH": "QVQLVQSGAEVKKPGASVKVSCKASGYTFSGYYIHWVRQAPGQGLKWMGWINPNSGGTNYAQKFQGRVTMTRDTSISTAYLELSRLRSDDTAVYYCARVEGLWTFDIWGQGTMVTVSS", "VL": "DIQMTQSPSSLSASIGDRVTITCQASQDISNYLNWYQQKPGKAPKLLIYDASNLETGVPSRFSGSGSGTDFTFTISSLQSEDIATYYCQQYEFFGGGTKVEIK"}, "B6": {"name": "GT8-D36-2_CLK09 (antibody, V domains shown)", "VH": "QVQLVQSGAEVKKPGASVKVSCKASGYTFTGYYMNWVRQAPGQGLEWMGWINPNSGGTNYAQQFQGRVTMTRDTSISTAYMELSRLKSDDTAVYYCARVDGKKKTFDIWGQGTMVTVSS", "VL": "B5 VL with I15V, A51V, D70A, S80P"}, "B7": {"name": "GT8-D36-4_CLK09 (antibody, V domains shown)", "VH": "not shown", "VL": "B5 VL with M4L, I15V, N31S, Y32S, P40T, L46V, S80P"}, "B8": {"name": "GT8-D36-5_CLK09 (antibody, V domains shown)", "VH": "not shown", "VL": "B5 VL with I15V, A25T, S80P"}, "B9": {"name": "GT8-D36-21_CLK09 (antibody, V domains shown)", "VH": "B5 VH with S30T", "VL": "B5 VL with I15V, S76G"}, "B10": {"name": "GT8-D36-3_CLK09 (antibody, V domains shown)", "VH": "QVQLVQSGAEVKKPGASVKVSCKASGYTFTGYYMHWVRQAPGQGLEWMGWINPNSGGTNFAQKFQGRVTMTRDTSINTAYMELSRLRSDDSAVFYCARVESKIFDIWGQGTMVTVSS", "VL": "B5 VL with I15V, A25T, S80P"}, "B11": {"name": "GT8-D36-19_CLK09 (antibody, V domains shown)", "VH": "B5 VH with K12R, S30T, K46E, A61E", "VL": "B5 VL with I15V"}, "B12": {"name": "GT8-D36-20_CLK09 (antibody, V domains shown)", "VH": "B5 VH with S30T", "VL": "B5 VL with I15V, T72I, I83M"}, "B13": {"name": "CLK21 germline (GL) mAb (antibody, V domains shown)", "VH": "not shown", "VL": "B3 VL with D92G"}}, "note": "Where a chain is given by its changes, count along the chain named.", "data": [{"biological_target": "eOD-GT8 (monomeric ligand) (Human immunodeficiency virus 1, …)", "assay": "not given", "details": "not given", "units": {"Kd": "nM"}, "values": [{"binder": "B1", "Kd": 0.411}, {"binder": "B2", "Kd": 2.03}, {"binder": "B3", "Kd": 2.63}, {"binder": "B4", "Kd": 2.94}, {"binder": "B5", "Kd": 4.09}, {"binder": "B6", "Kd": 0.997}, {"binder": "B7", "Kd": 0.0423}, {"binder": "B8", "Kd": 1.28}, {"binder": "B9", "Kd": 6.07}, {"binder": "B10", "Kd": 0.13}, {"binder": "B11", "Kd": 0.958}, {"binder": "B12", "Kd": 8.37}]}, {"biological_target": "T1, eOD-GT8 (monomeric ligand) (Human immunodeficiency virus 1, …)", "T1 construct": "also called eOD-GT8 ligand; GT8-prime ligand", "assay": "SPR; Carterra LSA; kinetics and affinity of antibody–antigen interactions, methods as in Cottrell et al. (ref. 56); who was immobilised is not told (the antigens are called ligands); values for groups are geometric means over the mAbs", "details": "both partners purified", "units": {"Kd": "nM"}, "values": [{"binder": "B13", "Kd": 440}]}]}
